Reference: patent publication US8344120B2, “Nucleic acid molecules encoding rage fusion proteins” (TransTech Pharma, Inc., priority 2006, dated 2013)

Legend:
mouse model of AD = test: APP transgenic mouse model of AD; format: in vivo, mice
Protocol: Experiments were performed to evaluate whether TTP-4000 could affect amyloid formation and cognitive dysfunction in a mouse model of AD. The experiments utilized transgenic mice expressing the human Swedish mutant amyloid precursor protein (APP) under the control of the PDGF-B chain promoter. Over time, these mice generate high levels of the RAGE ligand, amyloid beta (Aβ).
The APP mice (male) used in this experiment were designed by microinjection of the human APP gene (with the Swedish and London mutations) into mouse eggs under the control of the platelet-derived growth factor B (PDGF-B) chain gene promoter. The mice were generated on a C57BL/6 background and were developed by Molecular Therapeutics Inc. Animals were fed ad libitum and maintained by brother sister mating. The mice generated from this construct develop amyloid deposits starting at 6 months of age. Animals were aged for 6 months and then maintained for 90 days and sacrificed for amyloid quantification.
APP transgenic mice were administered vehicle or TTP4000 every other day [qod (i.p.)] for 90 days starting at 6 months of age. At the end of the experiment, animals were sacrificed and examined for Aβ plaque burden in the brain (i.e., plaque number). A 6-month control APP group was used to determine the baseline of amyloid deposits. In addition, at the end of the study, the animals were subjected to behavioral (Morris water maze) analysis. The investigators were blinded to the study compounds. Samples were given to the mice at 0.25 ml/mouse/every other day.
For histological examination, the animals were anesthetized with an intraperitoneal injection (IP) of sodium pentobarbital (50 mg/kg). The animals were transcardially perfused with 4° C., phosphate-buffered saline (PBS) followed by 4% paraformaldehyde. The brains were removed and placed in 4% paraformaldehyde over night. The brains were processed to paraffin and embedded. Ten serial 30-μm thick sections through the brain were obtained. Sections were subjected to primary antibody overnight at 4° C. (Aβ peptide antibody) in order to detect the amyloid deposits in the brain of the transgenic animals (Guo et al., J. Neurosci., 22:5900-5909 (2002)). Sections were washed in Tris-buffered saline (TBS) and secondary antibody was added and incubated for 1 hour at room temperature. After washing, the sections were incubated as instructed in the Vector ABC Elite kit (Vector Laboratories) and stained with […] (DAB). The reactions were stopped in water and cover-slipped after treatment with xylene. The amyloid area in each section was determined with a computer-assisted image analysis system, consisting of a Power Macintosh computer equipped with a Quick Capture frame grabber card, Hitachi CCD camera mounted on an Olympus microscope and camera stand. NIH Image Analysis Software, v. 1.55 was used. The images were captured and the total area of amyloid was determined over the ten sections. A single operator blinded to treatment status performed all measurements. Summing the amyloid volumes of the sections and dividing by the total number of sections was done to calculate the amyloid volume.
For quantitative analysis, an enzyme-linked immunosorbent assay (ELISA) was used to measure the levels of human total Aβ, Aβtotal and Aβ1-42 in the brains of APP transgenic mice (Biosource International, Camarillo, Calif.). Aβtotal and Aβ1-42 were extracted from mouse brains by guanidine hydrochloride and quantified as described by the manufacturer. […]

[1] = Pharmacokinetic profile of TTP-4000 after IV injection; format: in vivo, monkeys; conditions: single IV bolus 5 mg/kg; once TTP-4000 has saturated its ligands; plasma ELISA
Protocol: Following collection, the tubes were placed on wet ice (maximum 30 minutes) until centrifugation under refrigeration (at 2 to 8° C.) at 1500×g for 15 minutes. Each harvested plasma sample was then stored frozen (−70° C.±10° C.) until assayed for RAGE polypeptide using an ELISA at various time-points following the injection, as described in Example 6.
In FIG. 12 each curve represents a different animal under the same experimental conditions.
Initially, 50 uL of the RAGE specific monoclonal antibody 1HB1011 at a concentration of 10 ug/mL in 1× PBS pH 7.3 is coated on plates via overnight incubation. When ready for use, plates are washed three times with 300 uL of 1× Imidazole-Tween wash buffer and blocked with 1% BSA. […] The samples are allowed to incubate at room temperature for one hour. After incubation, the plates are plates are washed three times. A Goat Anti-human IgG1 1 (Sigma A3312) AP conjugate in 1×PBS with 1% BSA is added and allowed to incubate at room temperature for 1 hour. The plates are washed three times. Color was elucidated with paranitrophenylphosphate.

[2] = treated for 3 months, qod i.p., versus vehicle and human IgG1

B1: TTP-4000: four domain RAGE fusion protein: human RAGE N-terminal sequence (to position 251) linked to human IgG Fc (γ1) without hinge; SEQ ID NO: 34/56 (protein)
chain: QNITARIGEPLVLKCKGAPKKPPQRLEWKLNTGRTEAWKVLSPQGGGPWDSVARVLPNGSLFLPAVGIQDEGIFRCQAMNRNGKETKSNYRVRVYQIPGKPEIVDSASELTAGVPNKVGTCVSEGSYPAGTLSWHLDGKPLVPNEKGVSVKEQTRRHPETGLFTLQSELMVTPARGGDPRPTFSCSFSPGLPRHRALRTAPIQPRVWEPVPLEEVQLVVEPEGGAVAPPSVFLFPPKPKDTLMISRTPEVTCVVVDVSHEDPEVKFNWYVDGVEVHNAKTKPREEQYNSTYRVVSVLTVLHQDWLNGKEYKCKVSNKALPAPIEKTISKAKGQPREPQVYTLPPSRDELTKNQVSLTCLVKGFYPSDIAVEWESNGQPENNYKTTPPVLDSDGSFFLYSKLTVDKSRWQQGNVFSCSVMHEALHNHYTQKSLSLSPGK
inflammatory cytokines IL-1 and TNF-α (mouse model of AD; data not shown): can reduce the inflammatory cytokines IL-1 and TNF-α | Aβ plaques in the brain (mouse model of AD; [2]): fewer Aβ plaques | cognitive dysfunction (Morris water maze) (mouse model of AD; [2]): less cognitive dysfunction | terminal half-life [1]: greater than 300 hours
